# Test results taken from US20250313644A1.
# Like-named read-outs stand apart in the source and are kept apart here.
# B1: BM2 antibody (Merck/Prometheus TL1A monoclonal antibody PRA023) (antibody, INN chains, looked up, V domains shown)
# VH: QVQLVQSGAEVKKPGASVKVSCKASGFDIQDTYMHWVKQRPGQGLEWMGRIDPASGHTKYDPKFQVRVTITRDTSTSTVYLELSSLRSEDTAVYYCARSGGLPDVWGQGTTVTVSS
# VL: EIVLTQSPGTLSLSPGERATLSCRASSSVSYMYWYQQKPGQAPRPLIYATSNLASGIPDRFSGSGSGTDFTLTISRLEPEDFAVYYCQQWEGNPRTFGGGTKLEIK
# Legend:
# [1] = target: LIGHT (UniProt O43557); experiment: ELISA, coated LIGHT, Ab 0.391 nM
# [2] = target: human TL1A (HuTL1A) (human) (UniProt O95150); experiment: competition ELISA: antibody dilution mixed 1:1 with Biotin-TL1A, added to coated DcR3 (1 µg/mL), Streptavidin-HRP, OD450; blocked partner of TL1A: DcR3
# [3] = target: FASL (UniProt P48023); experiment: ELISA, coated FASL, Ab 1.563 nM
# [4] = target: TNFα (UniProt P01375); experiment: ELISA, coated TNF-α, Ab 0.000 nM (blank)
# [5] = target: human TL1A (HuTL1A) (human) (UniProt O95150); experiment: competition ELISA: antibody dilution mixed 1:1 with Biotin-TL1A, added to coated DcR3 (1 µg/mL), Streptavidin-HRP, OD450; blocked partner of TL1A: DcR3; remark: listed apart in the source
# [6] = target: LIGHT (UniProt O43557); experiment: ELISA, coated LIGHT, Ab 0.000 nM (blank)
# [7] = target: TNFα (UniProt P01375); experiment: ELISA, coated TNF-α, Ab 25 nM
# [8] = target: T1, LT-α (UniProt P01374); experiment: ELISA, coated LT-α, Ab 6.25 nM
# T1 sequence (looked up): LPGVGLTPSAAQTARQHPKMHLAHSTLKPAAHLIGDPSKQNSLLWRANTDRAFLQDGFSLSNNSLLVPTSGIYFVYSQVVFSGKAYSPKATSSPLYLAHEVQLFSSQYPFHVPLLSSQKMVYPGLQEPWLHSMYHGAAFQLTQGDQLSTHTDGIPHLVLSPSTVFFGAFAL
# [9] = target: T1, LT-α; experiment: ELISA, coated LT-α, Ab 25 nM
# [10] = target: LIGHT (UniProt O43557); experiment: ELISA, coated LIGHT, Ab 6.25 nM
# [11] = target: FASL (UniProt P48023); experiment: ELISA, coated FASL, Ab 0.000 nM (blank)
# [12] = target: human TL1A (HuTL1A) (human) (UniProt O95150); experiment: DLS, antigen and antibody mixed in equal moles
# [13] = target: human TL1A (HuTL1A) (human) (UniProt O95150); experiment: ELISA: biotin-HuTL1A on streptavidin plate, antibody diluted at pH 5.8, HRP-anti-human Fc, OD450
# [14] = target: LIGHT (UniProt O43557); experiment: ELISA, coated LIGHT, Ab 100 nM
# [15] = target: FASL (UniProt P48023); experiment: ELISA, coated FASL, Ab 6.25 nM
# [16] = target: TNFα (UniProt P01375); experiment: ELISA, coated TNF-α, Ab 100 nM
# [17] = target: human TL1A (HuTL1A) (human) (UniProt O95150); experiment: ELISA: biotin-HuTL1A on streptavidin plate, antibody diluted at pH 7.4, HRP-anti-human Fc, OD450
# [18] = target: LIGHT (UniProt O43557); experiment: ELISA, coated LIGHT, Ab 25 nM
# [19] = target: human TL1A (HuTL1A) (human) (UniProt O95150)
# [20] = target: T1, LT-α; experiment: ELISA, coated LT-α, Ab 0.000 nM (blank)
# [21] = target: TNFα (UniProt P01375); experiment: ELISA, coated TNF-α, Ab 0.391 nM
# [22] = target: FASL (UniProt P48023); experiment: ELISA, coated FASL, Ab 25 nM
# [23] = target: T1, LT-α; experiment: ELISA, coated LT-α, Ab 100 nM
# [24] = target: TNFα (UniProt P01375); experiment: ELISA, coated TNF-α, Ab 1.563 nM
# [25] = target: LIGHT (UniProt O43557); experiment: ELISA, coated LIGHT, Ab 1.563 nM
# [26] = target: T1, LT-α; experiment: ELISA, coated LT-α, Ab 1.563 nM
# [27] = target: FASL (UniProt P48023); experiment: ELISA, coated FASL, Ab 0.391 nM
# [28] = target: FASL (UniProt P48023); experiment: ELISA, coated FASL, Ab 100 nM
# [29] = target: TNFα (UniProt P01375); experiment: ELISA, coated TNF-α, Ab 6.25 nM
# [30] = target: T1, LT-α; experiment: ELISA, coated LT-α, Ab 0.391 nM
# [31] = target: human TL1A (HuTL1A) (human) (UniProt O95150); remark: listed apart in the source
# Chain of human TL1A (HuTL1A) (human) (O95150 57-251 limits assumed): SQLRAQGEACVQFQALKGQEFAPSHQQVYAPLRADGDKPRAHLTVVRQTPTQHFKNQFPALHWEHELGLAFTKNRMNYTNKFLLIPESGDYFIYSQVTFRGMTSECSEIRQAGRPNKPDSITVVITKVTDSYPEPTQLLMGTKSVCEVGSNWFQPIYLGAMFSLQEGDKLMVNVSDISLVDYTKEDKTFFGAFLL
# Chain of TNFα (P01375 77-233 limits assumed): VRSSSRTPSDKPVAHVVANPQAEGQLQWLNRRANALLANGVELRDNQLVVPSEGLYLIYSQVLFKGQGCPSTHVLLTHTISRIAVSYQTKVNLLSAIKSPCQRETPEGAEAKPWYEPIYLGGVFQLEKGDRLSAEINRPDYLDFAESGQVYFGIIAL
# Chain of LIGHT (O43557 74-240 limits assumed): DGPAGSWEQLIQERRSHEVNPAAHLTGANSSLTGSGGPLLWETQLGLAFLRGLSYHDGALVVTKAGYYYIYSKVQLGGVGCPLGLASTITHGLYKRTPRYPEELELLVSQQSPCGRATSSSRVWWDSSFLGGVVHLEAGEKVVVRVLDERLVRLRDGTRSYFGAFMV
# Chain of FASL (P48023 134-281 limits assumed): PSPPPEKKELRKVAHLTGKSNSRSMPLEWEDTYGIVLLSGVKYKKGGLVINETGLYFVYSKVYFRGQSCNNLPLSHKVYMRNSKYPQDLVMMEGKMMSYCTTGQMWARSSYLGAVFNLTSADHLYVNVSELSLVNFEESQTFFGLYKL
binder,measurement,setting,value
B1,OD450 nm,[1],0.0643
same,IC50 (read off the curve),[2],7 µg/mL
same,OD450 nm,[3],0.0522
same,OD450 nm,[4],0.0612
same,IC50 (read off the curve),[5],30 nM
same,OD450 nm,[6],0.0588
same,OD450 nm,[7],0.0577
same,OD450 nm,[8],0.0646
same,OD450 nm,[9],0.0659
same,OD450 nm,[10],0.0719
same,OD450 nm,[11],0.0549
same,Ave Z-dia (nm) of the antigen-antibody complex,[12],33.1 nm
same,EC50 (read off the curve),[13],0.2 nM
same,OD450 nm,[14],0.0864
same,OD450 nm,[15],0.0533
same,OD450 nm,[16],0.0757
same,EC50 (read off the curve),[17],0.2 nM
same,OD450 nm,[18],0.076
same,"IC50 (read off the curve); SEAP reporter in HEK293T/DR3-NFκB cells with soluble TL1A, OD655",[19],4 nM
same,OD450 nm,[20],0.0803
same,OD450 nm,[21],0.0522
same,OD450 nm,[22],0.0643
same,OD450 nm,[23],0.0701
same,OD450 nm,[24],0.0517
same,OD450 nm,[25],0.0741
same,OD450 nm,[26],0.0701
same,OD450 nm,[27],0.0511
same,OD450 nm,[28],0.0828
same,OD450 nm,[29],0.0514
same,OD450 nm,[30],0.0713
same,"IC50 (read off the curve); IFN-γ of human T cells with IL-12, IL-18 and exogenous human TL1A",[31],1 nM
